Experimental findings from patent US20260365731 (published 2026) are described below.

Several values for one entry are separate records, joined by “and”; a condition that tells them apart may be missing. Equal entries are not always repeated. Some results are limits rather than exact numbers.

Experiment [1] addresses T1, human VEGFA (human, UniProt P15692).
T1 chain: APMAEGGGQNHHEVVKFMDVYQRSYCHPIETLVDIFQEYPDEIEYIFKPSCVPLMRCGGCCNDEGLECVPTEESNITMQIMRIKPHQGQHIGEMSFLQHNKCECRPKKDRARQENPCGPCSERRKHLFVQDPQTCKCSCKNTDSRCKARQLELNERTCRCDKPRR
Description: BLI.

Experiment [2] concerns the target T2, human PD-1 (human, UniProt Q15116). Description: competition ELISA, PD-L1 blocking. (In general: ELISA stands for enzyme-linked immunosorbent assay.)
The target in experiment [3] is T2, human PD-1. As to the kind of experiment: ELISA.
Experiment [4] addresses T2, human PD-1. As to the kind of experiment: BLI. In general terms: In BLI a coated tip is dipped into the sample, and binding shifts an interference pattern.
For experiment [5], the target named is T1, human VEGFA. Description: SPR. A general note: Surface plasmon resonance follows binding to a sensor surface in real time, without labels.

B1: DotAb4 (designed binder)
chain: EVQLVESGGGLVQPGGSLRLSCAISGFSLAATDIDWVRQAPGKGLEWVARIFSPSDFTDYADSVKGRFTISADTSKNTVYLQMNSLRAEDTAVYYCGRPDTYAYNIFLDTPTYNALHYRGQGTLVTVSS
As to B1, the Kd (in general, the constant that tells how readily two partners part at equilibrium) in experiment [1] is < 0.0266 nM.

B2: Antibody 28 PD-1 arm (antibody, V domains shown)
VH: QGQLVQSGAEVKKPGASVKVSCKASGYTFTDYEMHWVRQAPIHGLEWIGVIESETGGTAYNQKFKGRVTITADKSTSTAYMELSSLRSEDTAVYYCAREGITTVATTYYWYFDVWGQGTTVTVSS
VL: DVVMTQSPLSLPVTLGQPASISCRSSQSIVHSNGNTYLEWYLQKPGQSPQLLIYKVSNRFSGVPDRFSGSGSGTDFTLKISRVEAEDVGVYYCFQGSHVPLTFGQGTKLEIK
For the molecule B2, the IC50 (commonly the concentration that gives 50% inhibition) in experiment [2] turned out to be 573 nM. The midpoint of the response in experiment [3], the EC50, lay at 59.5 nM. This molecule also returned a Kd in experiment [4] of 1.67 nM.

B3: Antibody 23 PD-1 arm (antibody, V domains shown)
VH: QGQLVQSGAEVKKPGASVKVSCKASGYTFTDYEMHWVRQAPIHGLEWIGVIESETGGTAYNQKFKGRVTITADKSTSTAYMELSSLRSEDTAVYYCAREGITTVATTYYWYFDVWGQGTTVTVSS
VL: DVVMTQSPLSLPVTLGQPASISCRSSQSIVHSNGNTYLEWYLQKPGQSPQLLIYKVSNRFSGVPDRFSGSGSGTDFTLKISRVEAEDVGVYYCFQGSHVPLTFGQGTKLEIK
In experiment [2], B3 showed a concentration for half-maximal inhibition (IC50) of 293 nM. Further, the concentration giving a half-maximal response (EC50) (usually the midpoint of the concentration-response curve) in experiment [3] came to 6.93 nM. Also, the dissociation constant (Kd) in experiment [4] came out at 1.73 nM.

B4: JS001 (TAB001, toripalimab) (antibody, V domains shown)
VH: QGQLVQSGAEVKKPGASVKVSCKASGYTFTDYEMHWVRQAPIHGLEWIGVIESETGGTAYNQKFKGRVTITADKSTSTAYMELSSLRSEDTAVYYCAREGITTVATTYYWYFDVWGQGTTVTVSS
VL: DVVMTQSPLSLPVTLGQPASISCRSSQSIVHSNGNTYLEWYLQKPGQSPQLLIYKVSNRFSGVPDRFSGSGSGTDFTLKISRVEAEDVGVYYCFQGSHVPLTFGQGTKLEIK
Take B4: the binding result in experiment [5] was “no binding”. Further, the half-inhibitory concentration (IC50) in experiment [2] was 255 nM and 135 nM. The molecule also displayed an equilibrium dissociation constant (Kd) in experiment [4] of 0.584 nM.

B5: Antibody 24 PD-1 arm (antibody, V domains shown)
VH: QGQLVQSGAEVKKPGASVKVSCKASGYTFTDYEMHWVRQAPIHGLEWIGVIESETGGTAYNQKFKGRVTITADKSTSTAYMELSSLRSEDTAVYYCAREGITTVATTYYWYFDVWGQGTTVTVSS
VL: DVVMTQSPLSLPVTLGQPASISCRSSQSIVHSNGNTYLEWYLQKPGQSPQLLIYKVSNRFSGVPDRFSGSGSGTDFTLKISRVEAEDVGVYYCFQGSHVPLTFGQGTKLEIK
In experiment [2], B5 showed an IC50 of 243 nM. A half-maximal effect in experiment [3] (EC50) was put at 14.6 nM. This molecule also had a Kd in experiment [4] of 1.21 nM.

B6: Antibody 27 PD-1 arm (antibody, V domains shown)
VH: QGQLVQSGAEVKKPGASVKVSCKASGYTFTDYEMHWVRQAPIHGLEWIGVIESETGGTAYNQKFKGRVTITADKSTSTAYMELSSLRSEDTAVYYCAREGITTVATTYYWYFDVWGQGTTVTVSS
VL: DVVMTQSPLSLPVTLGQPASISCRSSQSIVHSNGNTYLEWYLQKPGQSPQLLIYKVSNRFSGVPDRFSGSGSGTDFTLKISRVEAEDVGVYYCFQGSHVPLTFGQGTKLEIK
On to B6, for which the IC50 in experiment [2] came to 297 nM. For the same molecule, the EC50 in experiment [3] amounted to 23.8 nM. Binding in experiment [4] was characterised by a dissociation constant (Kd) of 0.864 nM.
